Source: PMC8439582 (Nature structural & molecular biology, 2019)
Read-outs that look alike come from different tables or passages of the source.

B1: Tom6 (natural protein, S. cerevisiae, UniProt P33448 1-61, looked up)
chain: MDGMFAMPGAAAGAASPQQPKSRFQAFKESPLYTIALNGAFFVAGVAFIQSPLMDMLAPQL
B2: Tom7 (natural protein, S. cerevisiae, UniProt P53507 1-60, looked up)
chain: MSFLPSFILSDESKERISKILTLTHNVAHYGWIPFVLYLGWAHTSNRPNFLNLLSPLPSV
B3: Tom40 with a C-terminal Strep-tag (overexpressed, wild type) (natural protein, S. cerevisiae, UniProt P23644 1-387, looked up)
chain: MSAPTPLAEASQIPTIPALSPLTAKQSKGNFFSSNPISSFVVDTYKQLHSHRQSLELVNPGTVENLNKEVSRDVFLSQYFFTGLRADLNKAFSMNPAFQTSHTFSIGSQALPKYAFSALFANDNLFAQGNIDNDLSVSGRLNYGWDKKNISKVNLQISDGQPTMCQLEQDYQASDFSVNVKTLNPSFSEKGEFTGVAVASFLQSVTPQLALGLETLYSRTDGSAPGDAGVSYLTRYVSKKQDWIFSGQLQANGALIASLWRKVAQNVEAGIETTLQAGMVPITDPLMGTPIGIQPTVEGSTTIGAKYEYRQSVYRGTLDSNGKVACFLERKVLPTLSVLFCGEIDHFKNDTKIGCGLQFETAGNQELLMLQQGLDADGNPLQALPQL
B4: core TOM complex from S. cerevisiae (Tom40, Tom22, Tom5, Tom6, Tom7) (complex)
chain 1: B3 chain
chain 2: MVELTEIKDDVVQLDEPQFSRNQAIVEEKASATNNDVVDDEDDSDSDFEDEFDENETLLDRIVALKDIVPPGKRQTISNFFGFTSSFVRNAFTKSGNLAWTLTTTALLLGVPLSLSILAEQQLIEMEKTFDLQSDANNILAQGEKDAAATAN
chain 3: MFGLPQQEVSEEEKRAHQEQTEKTLKQAAYVAAFLWVSPMIWHLVKKQWK
chain 4: B1 chain
chain 5: B2 chain
B5: Tom22 with a C-terminal His-tag (natural protein, S. cerevisiae, UniProt P49334 1-152, looked up)
chain: B4 chain 2

Experiments:
[1] = molecular target: B3; experiment: cryo-EM structure
[2] = molecular target: B3; experiment: cryo-EM structure; remark: listed apart in the source
cryo-EM structure = molecular target: the molecule itself; experiment: cryo-EM structure
SEC = molecular target: the molecule itself; experiment: SEC
[3] = molecular target: B5; experiment: cryo-EM structure

Binder: B1
- binding result [1]: binds

Binder: B2
- binding result [2]: binds

Binder: B3
- binding result (cryo-EM structure): binds

Binder: B4
- stoichiometry N (SEC): 2

Binder: MFGLPQQEVSEEEKRAHQEQTEKTLKQAAYVAAFLWVSPMIWHLVKKQWK (natural protein, S. cerevisiae, UniProt P80967 1-50, looked up) [Tom5]
- binding result [2]: binds
- binding result [3]: binds

Binder: B5
- binding result [2]: binds
